Results on 31 molecules are retold here after publication PMC10786891, “Massively parallel profiling of RNA-targeting CRISPR-Cas13d”.

B1: target 3 A5C,U8G (mixed)
RNA 1: CACCCGUGCAAAAUUGCAGGGGUCUAAAACGACCUGAAUAUUUCAGAUCAAA
RNA 2: GGGAAUGGAUCCACAUCUACGAAUUCGUUUUUGAUCUGAAAUAGUCCGGUCUGCAGAUCGGAAGAGCACACGU
B2: target 3 complement block 4-6 (mixed)
RNA 1: B1 RNA 1
RNA 2: B1 RNA 2 with G44U, C46G, C47U, G48C
B3: target 3 insC 3' of 5,insU 3' of 5 (mixed)
RNA 1: B1 RNA 1
RNA 2: GGGAAUGGAUCCACAUCUACGAAUUCGUUUUUGAUCUGAAAUAUUCACUGGUCUGCAGAUCGGAAGAGCACACGU
B4: target 3 insU 3' of 5,insC 3' of 2 (mixed)
RNA 1: B1 RNA 1
RNA 2: B3 RNA 2 with C48U, U49G, G51U, U52C
B5: target 3 insA 3' of 22,insG 3' of 7 (mixed)
RNA 1: B1 RNA 1
RNA 2: GGGAAUGGAUCCACAUCUACGAAUUCGUUUAUUGAUCUGAAAUAUUGCAGGUCUGCAGAUCGGAAGAGCACACGU
B6: target 3 U2G,G4C (mixed)
RNA 1: B1 RNA 1
RNA 2: B1 RNA 2 with G44U, C47A, G48C, U50G
B7: target 3 insU 3' of 5,insA 3' of 1 (mixed)
RNA 1: B1 RNA 1
RNA 2: B3 RNA 2 with C48U, U49G, G51U, U52C, C53A
B8: target 3 insC 3' of 12,insG 3' of 2 (mixed)
RNA 1: B1 RNA 1
RNA 2: GGGAAUGGAUCCACAUCUACGAAUUCGUUUUUGAUCUGAACAUAUUCAGGUGCUGCAGAUCGGAAGAGCACACGU
B9: target 3 G3U,A5U (mixed)
RNA 1: B1 RNA 1
RNA 2: B1 RNA 2 with G44U, C47U, G49U
B10: target 3 insC 3' of 11,insC 3' of 3 (mixed)
RNA 1: B1 RNA 1
RNA 2: B8 RNA 2 with C41A, A42C, U51C, G52U
B11: target 3 G3C,A18G (mixed)
RNA 1: B1 RNA 1
RNA 2: B1 RNA 2 with A34G, G44U, C47A, G49C
B12: target 3 insA 3' of 22,insC 3' of 22 (mixed)
RNA 1: B1 RNA 1
RNA 2: GGGAAUGGAUCCACAUCUACGAAUUCGUUUACUUGAUCUGAAAUAUUCAGGUCUGCAGAUCGGAAGAGCACACGU
B13: target 3 U2A,A5G (mixed)
RNA 1: B1 RNA 1
RNA 2: B1 RNA 2 with G44U, C47G, U50A
B14: target 3 insA 3' of 14,insC 3' of 3 (mixed)
RNA 1: B1 RNA 1
RNA 2: B8 RNA 2 with C41A, U51C, G52U
B15: target 3 G4C,U8G (mixed)
RNA 1: B1 RNA 1
RNA 2: B1 RNA 2 with C47A, G48C
B16: target 3 insU 3' of 22,insC 3' of 3 (mixed)
RNA 1: B1 RNA 1
RNA 2: B5 RNA 2 with A31U, G47C, C48A, A49G, G51C
B17: target 3 insU 3' of 5,insG 3' of 1 (mixed)
RNA 1: B1 RNA 1
RNA 2: B3 RNA 2 with C48U, U49G, G51U, U52C, C53G
B18: target 3 insC 3' of 22,insU 3' of 5 (mixed)
RNA 1: B1 RNA 1
RNA 2: B5 RNA 2 with A31C, G47C, C48A, A49U
B19: target 3 insA 3' of 10,insU 3' of 5 (mixed)
RNA 1: B1 RNA 1
RNA 2: B3 RNA 2 with U44A, C46U, A47C, C48A
B20: target 3 A5G,A9G (mixed)
RNA 1: B1 RNA 1
RNA 2: B1 RNA 2 with A43G, G44U, C47G
B21: target 3 G4A,A5G (mixed)
RNA 1: B1 RNA 1
RNA 2: B1 RNA 2 with G44U, C47G, G48A
B22: target 3 G4C,A5G (mixed)
RNA 1: B1 RNA 1
RNA 2: B1 RNA 2 with G44U, C47G, G48C
B23: target 3 insU 3' of 9,insG 3' of 8 (mixed)
RNA 1: B1 RNA 1
RNA 2: B3 RNA 2 with C46G, A47U, U49A
B24: target 3 insA 3' of 4 (mixed)
RNA 1: B1 RNA 1
RNA 2: GGGAAUGGAUCCACAUCUACGAAUUCGUUUUUGAUCUGAAAUAUUCAGAGUCUGCAGAUCGGAAGAGCACACGU
B25: target 3 insC 3' of 8,insA 3' of 7 (mixed)
RNA 1: B1 RNA 1
RNA 2: B3 RNA 2 with U45C, C46U, U49A
B26: target 3 U8G,U22C (mixed)
RNA 1: B1 RNA 1
RNA 2: B1 RNA 2 with U30C, C47A
B27: target 3 U2G,A11G (mixed)
RNA 1: B1 RNA 1
RNA 2: B1 RNA 2 with A41G, G44U, C47A, U50G
B28: target 3 insG 3' of 2,insU 3' of 1 (mixed)
RNA 1: B1 RNA 1
RNA 2: B3 RNA 2 with C48G, U49G, G50U, U52C, C53U
B29: target 1 U11G,G13C (mixed)
RNA 1: CACCCGUGCAAAAAUGCAGGGGUCUAAAACUGAGCGGAUAACCUCUCUAUGG
RNA 2: GGGAAUGGAUCCACAUCUACGAAUUCGUACCAUAGAGACGGUAUCCGCUCACCGAGAUCGGAAGAGCACACGU
B30: target 1 A1G,U8A (mixed)
RNA 1: B29 RNA 1
RNA 2: B29 RNA 2 with C39G, G41U, U44A, A51G
B31: target 1 C7U,U10G (mixed)
RNA 1: B29 RNA 1
RNA 2: B29 RNA 2 with C39G, G41U, U42G, C45U

As usually defined, the Kd is the constant that tells how readily two partners part at equilibrium. A high value points to weaker binding.

Positions count from the first letter of the chain named. Names and notes keep the numbering of the source.

In this series the target is T1, EsCas13d, nuclease-dead (Eubacterium siraeum, UniProt B0MS50, R295A;H300A;R849A;H854A).
T1 sequence: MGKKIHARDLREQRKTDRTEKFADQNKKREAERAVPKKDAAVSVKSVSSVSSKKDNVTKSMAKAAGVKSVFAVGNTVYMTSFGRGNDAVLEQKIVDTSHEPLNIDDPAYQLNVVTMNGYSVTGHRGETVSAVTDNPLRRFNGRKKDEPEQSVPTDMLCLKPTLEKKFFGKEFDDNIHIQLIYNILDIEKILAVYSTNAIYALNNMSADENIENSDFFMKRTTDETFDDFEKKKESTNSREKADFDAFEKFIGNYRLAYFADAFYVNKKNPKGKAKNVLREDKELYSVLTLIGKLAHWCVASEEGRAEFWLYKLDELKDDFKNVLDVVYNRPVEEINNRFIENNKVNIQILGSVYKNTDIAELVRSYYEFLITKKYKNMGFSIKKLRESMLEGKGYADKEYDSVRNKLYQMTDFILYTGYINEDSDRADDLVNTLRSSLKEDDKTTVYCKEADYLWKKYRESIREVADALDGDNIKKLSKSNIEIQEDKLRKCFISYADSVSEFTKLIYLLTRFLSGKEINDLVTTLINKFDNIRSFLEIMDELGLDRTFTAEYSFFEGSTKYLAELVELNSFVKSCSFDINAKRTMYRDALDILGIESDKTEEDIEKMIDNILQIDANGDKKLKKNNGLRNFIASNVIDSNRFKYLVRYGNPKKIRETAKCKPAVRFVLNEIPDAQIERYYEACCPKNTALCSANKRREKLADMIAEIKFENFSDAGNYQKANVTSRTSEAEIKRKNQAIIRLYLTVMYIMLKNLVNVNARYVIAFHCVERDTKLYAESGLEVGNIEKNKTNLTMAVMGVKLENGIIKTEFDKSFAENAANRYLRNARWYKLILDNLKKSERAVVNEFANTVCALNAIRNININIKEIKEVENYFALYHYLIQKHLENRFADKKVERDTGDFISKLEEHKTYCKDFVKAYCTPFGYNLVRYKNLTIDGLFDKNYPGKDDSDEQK
The series is described as follows: crRNA (strand 1, pre-loaded); Mg2+; 40 mM Tris-HCl pH 7.5, 150 mM NaCl, 6 mM MgCl2, 1 mM DTT, 0.1% Tween-20, 0.2 mg/ml BSA; 25 C; 10 min per concentration, then washed. The conditions noted are these: tags: His6-TwinStrep-SUMO cleaved; N-terminal SNAP kept (SNAP-Surface 488); label: 3' end held by stalled T7 RNA polymerase.
The molecule B1 came in with a Kd of 74 ± 12 nM.

B2 showed a Kd of 23.7 ± 2.45 nM.

B3 yielded a Kd of 5.23 ± 0.375 nM.

The molecule B4 registered a Kd of 40.5 ± 6 nM.

B5 had a Kd of 96 ± 32.5 nM.

As for B6, the affinity, expressed as Kd, was 3.65 ± 0.55 nM.

Molecule B7 had a Kd of 36.5 ± 10.5 nM.

Consider B8, for which the Kd was 94 ± 39.5 nM.

In turn, B9 returned a Kd of 32.5 ± 4.5 nM.

In turn, B10 returned a Kd of 50 ± 6 nM.

B11 displayed a Kd of 38.7 ± 6.25 nM.

For the molecule B12, the Kd amounted to 15 ± 1.4 nM.

In turn, B13 showed a Kd of 3.12 ± 0.355 nM.

In turn, B14 gave a Kd of 59 ± 9.5 nM.

Molecule B15 came in with a Kd of 69 ± 8 nM.

As for B16, the Kd turned out to be 12.2 ± 1.35 nM.

B17 yielded a Kd of 27 ± 4.5 nM.

As to B18, the Kd was 12.3 ± 1.6 nM.

Regarding B19, the Kd was found to be 58.5 ± 6.5 nM.

As to B20, the Kd turned out to be 73 ± 14 nM.

Consider B21, for which the Kd was found to be 19.5 ± 1.7 nM.

In the case of B22, the affinity, expressed as Kd, was 14.7 ± 1.1 nM.

On to B23, for which the affinity, expressed as Kd, was 82 ± 19 nM.

Turning to B24, the Kd amounted to 65.5 ± 15 nM.

The molecule B25 came in with a Kd of 40.5 ± 4 nM.

B26 had a Kd of 90 ± 40 nM.

On to B27, for which the Kd came out at 62.5 ± 12 nM.

In turn, B28 showed a Kd of 67.5 ± 9 nM.

Molecule B29 yielded a Kd of around 70 nM.

In the case of B30, binding was characterised by a dissociation constant (Kd) of 31.7 ± 1.8 nM.

In turn, B31 yielded a Kd of 11.2 ± 0.5 nM.
